Earlier results on one substance are cited in paper PMC5053023.

In this series the target is SRSF1 RS domain (Homo sapiens) (UniProt Q07955).
UniProt Q07955, sequence (Q07955 198-248): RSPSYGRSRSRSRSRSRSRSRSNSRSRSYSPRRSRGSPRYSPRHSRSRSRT

As a reminder, the Kd is the free concentration of one partner at which half of the binding sites on the other are occupied at equilibrium, for simple one-to-one binding. Take SRPK1 (from UniProt Q96SB4): the Kd is 100 nM.
